Test results: patent US8658685B2, “Methods for treatment of kallikrein-related disorders” (Activesite Pharmaceuticals, Inc., priority 2008, dated 2014)

Tests used:
astrocytes = experiment: Plasma kallikrein-induced ERK phosphorylation in astrocytes; type: cell-based; conditions: astrocytes exposed to plasma kallikrein
From the text: We have also studied the effects of plasma kallikrein pathway activation on astrocytes. […] Exposure of astrocytes to plasma kallikrein potently stimulated ERK phosphorylation, and this action of kallikrein on astrocytes is not affected by B2-R antagonism (Hoe140). The effect of kallikrein on astrocytes was blocked by leupeptin, a protease inhibitor and C1-INH (data not shown). […] This is in contrast to the bradykinin effect, which is rapid and transient (data not shown). Plasma kallikrein's effect on ERK phosphorylation in astrocytes is dose dependent, reaching a maximal effect at 100 nM kallikrein (data not shown). […] In addition, plasma kallikrein binding to astrocytes was blocked by AS-440 (FIG. 9B) and C1-INH (data not shown).

[1] = test system: retinal vascular permeability (RVP); experiment: Retinal vascular permeability to fluorescein, kallikrein pathway inhibitors; conditions: in vivo
From the text: Activators of the kallikrein pathway, including purified activated plasma kallikrein, factor XII (FXII), high molecular weight kininogen (HK), and bradykinin, increase retinal vascular permeability (RVP) to fluorescein. In addition, inhibitors of the kallikrein pathway, such as complement I inhibitors and α2-macroglobulin reduced RVP. Direct injection of these kallikrein pathway activators into the vitreous was observed by SLO fundus imaging of the leakage from first phase fluorescein following bolus intravenous injection (FIG. 2) and by vitreous fluorophotometry, which measure the levels of fluorescein in the vitreous 30 min after intravenous injection (FIG. 5A). […] In addition, intravitreal injection of bradykinin can acutely increase RVP (FIGS. 2A and 2B). Moreover, pretreatment of rats for 2 days with Hoe140 (Bradykinin R2 antagonist, 12 ug/day/200 g rat delivered using a subcutaneous Alzet pump) inhibited bradykinin-induced RVP (FIG. 3B).

Molecule	effect of kallikrein on ERK phosphorylation (astrocytes)	RVP [1]
CC(=O)N[C@@H](CC(C)C)C(=O)N[C@@H](CC(C)C)C(=O)N[C@H](C=O)CCCNC(=N)N [leupeptin, reference compound]	blocked	–
α2-macroglobulin: inhibitor of the kallikrein pathway (protein, UniProt P01023 24-1474, looked up) Alpha-2-macroglobulin: SVSGKPQYMVLVPSLLHTETTEKGCVLLSYLNETVTVSASLESVRGNRSLFTDLEAENDVLHCVAFAVPKSSSNEEVMFLTVQVKGPTQEFKKRTTVMVKNEDSLVFVQTDKSIYKPGQTVKFRVVSMDENFHPLNELIPLVYIQDPKGNRIAQWQSFQLEGGLKQFSFPLSSEPFQGSYKVVVQKKSGGRTEHPFTVEEFVLPKFEVQVTVPKIITILEEEMNVSVCGLYTYGKPVPGHVTVSICRKYSDASDCHGEDSQAFCEKFSGQLNSHGCFYQQVKTKVFQLKRKEYEMKLHTEAQIQEEGTVVELTGRQSSEITRTITKLSFVKVDSHFRQGIPFFGQVRLVDGKGVPIPNKVIFIRGNEANYYSNATTDEHGLVQFSINTTNVMGTSLTVRVNYKDRSPCYGYQWVSEEHEEAHHTAYLVFSPSKSFVHLEPMSHELPCGHTQTVQAHYILNGGTLLGLKKLSFYYLIMAKGGIVRTGTHGLLVKQEDMKGHFSISIPVKSDIAPVARLLIYAVLPTGDVIGDSAKYDVENCLANKVDLSFSPSQSLPASHAHLRVTAAPQSVCALRAVDQSVLLMKPDAELSASSVYNLLPEKDLTGFPGPLNDQDNEDCINRHNVYINGITYTPVSSTNEKDMYSFLEDMGLKAFTNSKIRKPKMCPQLQQYEMHGPEGLRVGFYESDVMGRGHARLVHVEEPHTETVRKYFPETWIWDLVVVNSAGVAEVGVTVPDTITEWKAGAFCLSEDAGLGISSTASLRAFQPFFVELTMPYSVIRGEAFTLKATVLNYLPKCIRVSVQLEASPAFLAVPVEKEQAPHCICANGRQTVSWAVTPKSLGNVNFTVSAEALESQELCGTEVPSVPEHGRKDTVIKPLLVEPEGLEKETTFNSLLCPSGGEVSEELSLKLPPNVVEESARASVSVLGDILGSAMQNTQNLLQMPYGCGEQNMVLFAPNIYVLDYLNETQQLTPEIKSKAIGYLNTGYQRQLNYKHYDGSYSTFGERYGRNQGNTWLTAFVLKTFAQARAYIFIDEAHITQALIWLSQRQKDNGCFRSSGSLLNNAIKGGVEDEVTLSAYITIALLEIPLTVTHPVVRNALFCLESAWKTAQEGDHGSHVYTKALLAYAFALAGNQDKRKEVLKSLNEEAVKKDNSVHWERPQKPKAPVGHFYEPQAPSAEVEMTSYVLLAYLTAQPAPTSEDLTSATNIVKWITKQQNAQGGFSSTQDTVVALHALSKYGAATFTRTGKAAQVTIQSSGTFSSKFQVDNNNRLLLQQVSLPELPGEYSMKVTGEGCVYLQTSLKYNILPEKEEFPFALGVQTLPQTCDEPKAHTSFQISLSVSYTGSRSASNMAIVDVKMVSGFIPLKPTVKMLERSNHVSRTEVSSNHVLIYLDKVSNQTLSLFFTVLQDVPVRDLKPAIVKVYDYYETDEFAIAEYNAPCSKDLGNA	–	reduced RVP
complement I inhibitors: inhibitors of the kallikrein pathway; probably complement 1 inhibitor (C1-INH) (protein, UniProt P05155 23-500, looked up) Plasma protease C1 inhibitor: NPNATSSSSQDPESLQDRGEGKVATTVISKMLFVEPILEVSSLPTTNSTTNSATKITANTTDEPTTQPTTEPTTQPTIQPTQPTTQLPTDSPTQPTTGSFCPGPVTLCSDLESHSTEAVLGDALVDFSLKLYHAFSAMKKVETNMAFSPFSIASLLTQVLLGAGENTKTNLESILSYPKDFTCVHQALKGFTTKGVTSVSQIFHSPDLAIRDTFVNASRTLYSSSPRVLSNNSDANLELINTWVAKNTNNKISRLLDSLPSDTRLVLLNAIYLSAKWKTTFDPKKTRMEPFHFKNSVIKVPMMNSKKYPVAHFIDQTLKAKVGQLQLSHNLSLVILVPQNLKHRLEDMEQALSPSVFKAIMEKLEMSKFQPTLLTLPRIKVTTSQDMLSIMEKLEFFDFSYDLNLCGLTEDPDLQVSAMQHQTVLELTETGVEAAAASAISVARTLLVFEVQQPFLFVLWDQQHKFPVFMGRVYDPRA	–	reduced RVP
